From US20240238439A1 (HUMMINGBIRD BIOSCIENCE PTE, published 2024)

What was measured:
Assay in all cases: SPR (Biacore T200), His-captured receptor on CM5 chip, ADC as analyte
[1] = target: T1, His-tagged recombinant human FcγRIIA (human, UniProt P12318 34-217, limits assumed)
T1 construct: Captured on a CM5 chip by the Biacore HIS capture kit; also called human FCγRIIA (CD32a); not shown: His tag
T1 sequence (looked up): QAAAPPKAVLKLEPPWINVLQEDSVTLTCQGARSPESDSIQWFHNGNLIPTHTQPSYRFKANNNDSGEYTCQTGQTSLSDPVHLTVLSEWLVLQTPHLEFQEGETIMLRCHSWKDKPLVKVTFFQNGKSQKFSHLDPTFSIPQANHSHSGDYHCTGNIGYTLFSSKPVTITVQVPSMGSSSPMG
Method: (§1) ADCs described in Example 2 were analysed for their ability to bind to human Fcγ receptors by surface plasmon resonance using Biacore.
(§2) Briefly, a Biacore HIS capture kit (Cytivia, Cat. #28995056) was employed to immobilize His-tagged recombinant human Fcγ receptor ligand (FcγRIA, FcγRIIA or FcγRIIIA) onto the surface of a CM5 sensor chip. […] Data capture and analysis were preformed using Biacore T200 according to manufacturer's recommendations for analyzing high-affinity antigen-antibody kinetics. Responses from all steps were reference cell-subtracted, and zero concentration-corrected to normalize for systematic disturbances. The resulting association and dissociation curves were fitted with 1:1 global fitting to obtain values for association rate (ka), dissociation rate (kd), and the equilibrium dissociation constant (KD).

[2] = target: T2, His-tagged recombinant human FcγRIIIA (human, UniProt P08637 17-208)
T2 construct: Captured on a CM5 chip by the Biacore HIS capture kit; also called human FCγRIIIA (CD16a); not shown: His tag
Method: as §1, §2

[3] = target: T3, His-tagged recombinant human FcγRIA (human, UniProt P12314 16-288, limits assumed)
T3 construct: Captured on a CM5 chip by the Biacore HIS capture kit; also called human FCγRIA (CD64); not shown: His tag
Method: as §1, §2

Measured: binding result

T2 sequence (P08637 17-208 limits assumed): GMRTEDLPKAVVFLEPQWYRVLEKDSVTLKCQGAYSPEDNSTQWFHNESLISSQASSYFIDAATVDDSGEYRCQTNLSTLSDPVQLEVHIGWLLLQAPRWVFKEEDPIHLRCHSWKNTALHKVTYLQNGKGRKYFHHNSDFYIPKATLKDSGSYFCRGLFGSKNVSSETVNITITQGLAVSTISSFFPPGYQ
T3 sequence (P12314 16-288 limits assumed): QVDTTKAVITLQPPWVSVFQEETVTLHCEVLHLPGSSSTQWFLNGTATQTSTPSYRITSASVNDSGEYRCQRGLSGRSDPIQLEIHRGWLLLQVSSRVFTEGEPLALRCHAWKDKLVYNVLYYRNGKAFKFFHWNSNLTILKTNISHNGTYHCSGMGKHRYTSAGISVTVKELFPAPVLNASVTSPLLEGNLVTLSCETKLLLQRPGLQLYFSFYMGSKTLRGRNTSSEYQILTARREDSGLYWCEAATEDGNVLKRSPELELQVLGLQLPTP

B1: 501c.S8D4 (antibody, human IgG1, kappa, L234A L235A)
heavy: not shown
light: DIQMTQSPSSVSASVGDRVTITCKASQIVGSNVAWYQQKPGKAPEPLIYSASYLYSGVPSRFSGSGSGTDFTLTISSLQPEDFATYYCQQYSSHPLTFGQGTKLEIKRTVAAPSVFIFPPSDEQLKSGTASVVCLLNNFYPREAKVQWKVDNALQSGNSQESVTEQDSKDSTYSLSSTLTLSKADYEKHKVYACEVTHQGLSSPVTKSFNRGEC
modifications: SYNtecan E (HydraSpace-PEG2-HydraSpace-Val-Ala-PABC linker, exatecan payload) conjugated at the 6-azido-GalNAc residue of the N-glycan of N297 (EU numbering); drug-to-antibody ratio 4
no binding: all assays above

B2: 501b.S8D4 (antibody, human IgG1, kappa, L234A L235A)
heavy: QVQLQESGPGLVKPSQTLSLTCTVSGYSITSGYSWHWIRQHPGKGLEWIGSIRYSGGTDYNPSLKSLVTISADTSKNQFSLKLSSVTAADTAVYYCARMTTAPWYPFDYWGQGTTVTVSSASTKGPSVFPLAPSSKSTSGGTAALGCLVKDYFPEPVTVSWNSGALTSGVHTFPAVLQSSGLYSLSSVVTVPSSSLGTQTYICNVNHKPSNTKVDKKVEPKSCDKTHTCPPCPAPEAAGGPSVFLFPPKPKDTLYITREPEVTCVVVDVSHEDPEVKFNWYVDGVEVHNAKTKPREEQYNSTYRVVSVLTVLHQDWLNGKEYKCKVSNKALPAPIEKTISKAKGQPREPQVYTLPPSRDELTKNQVSLTCLVKGFYPSDIAVEWESNGQPENNYKTTPPVLDSDGSFFLYSKLTVDKSRWQQGNVFSCSVMHEALHNHYTQKSLSLSPGK
light: DIQMTQSPSSVSASVGDRVTITCKASQIVGSNVAWYQQKPGKAPEPLIYSASYLYSGVPSRFSGSGSGTDFTLTISSLQPEDFATYYCQQYSSHPLTFGQGTKLEIKRTVAAPSVFIFPPSDEQLKSGTASVVCLLNNFYPREAKVQWKVDNALQSGNSQESVTEQDSKDSTYSLSSTLTLSKADYEKHKVYACEVTHQGLSSPVTKSFNRGEC
modifications: SYNtecan E (HydraSpace-PEG2-HydraSpace-Val-Ala-PABC linker, exatecan payload) conjugated at the 6-azido-GalNAc residue of the N-glycan of N297 (EU numbering); drug-to-antibody ratio 4
no binding: all assays above
